Data: patent US20230212305A1, “ANTI-ABCG2 ANTIBODIES AND USES THEREOF” (Kenjockety Biotechnology, Inc., priority 2020, published 2023)

T1: ABCG2 (Homo sapiens, UniProt Q9UNQ0)
T1 construct: expressed in transfected cells
T1 sequence (Q9UNQ0 1-655): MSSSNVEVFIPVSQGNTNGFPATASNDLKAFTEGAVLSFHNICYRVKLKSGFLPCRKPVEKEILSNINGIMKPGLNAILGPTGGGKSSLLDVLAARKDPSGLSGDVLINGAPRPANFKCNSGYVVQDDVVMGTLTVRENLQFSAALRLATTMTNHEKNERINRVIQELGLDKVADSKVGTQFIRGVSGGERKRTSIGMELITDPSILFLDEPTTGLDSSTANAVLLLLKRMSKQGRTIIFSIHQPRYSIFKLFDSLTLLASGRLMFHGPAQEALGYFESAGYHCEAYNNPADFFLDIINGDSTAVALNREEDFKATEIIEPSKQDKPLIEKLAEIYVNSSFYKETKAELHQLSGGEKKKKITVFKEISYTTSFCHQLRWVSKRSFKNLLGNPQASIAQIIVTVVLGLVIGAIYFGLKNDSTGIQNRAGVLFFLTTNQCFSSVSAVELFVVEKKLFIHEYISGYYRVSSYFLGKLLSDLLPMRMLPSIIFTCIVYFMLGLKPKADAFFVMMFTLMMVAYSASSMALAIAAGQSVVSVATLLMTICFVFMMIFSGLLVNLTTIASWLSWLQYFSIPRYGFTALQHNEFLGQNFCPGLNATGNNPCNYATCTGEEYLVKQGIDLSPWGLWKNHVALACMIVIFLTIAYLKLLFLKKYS


Experiments:
ABCG2 [1] = target: T1, ABCG2; assay: Flow cytometry binding to 293T cells overexpressing human ABCG2 (293T_ABCG2_OX); design: key to Binding by FACS: binding=“+”; non-significant binding=“−”; details: for binding to 293T cells overexpressing human ABCG2: in words, FIGS. 7-11, 21; for Binding by FACS / Kd: 293T_ABCG2_OX cells; for Kd: read-out: Affinity for human ABCG2
Description: (§1) Cell Binding Assays. Antibody binding to cells was evaluated by flow cytometry. 293T cells stably transfected to express human or cynomolgus ABCG2 (293T_ABCG2_OX) were washed once in flow cytometry buffer (PBS+2% FBS+0.02% sodium azide), resuspended at 2×10^6 cells/mL in flow cytometry buffer, and dispensed into 96-well microtiter plates at 0.1 mL/well. Recombinant antibodies were added to cells at 5 ug/mL for initial binding confirmation, or serially diluted from 100 ug/mL in flow cytometry buffer. After incubating cells on ice for 30 min, cells were washed twice with flow cytometry buffer. Bound antibody was detected with PE-labeled F(ab′)2 fragment goat anti-human IgG (Jackson ImmunoResearch) and evaluated on an Attune NxT flow cytometer. EC50 is calculated to be the concentration of antibody that gives half maximal response.

293T_ABCG2_OX cells = type: cell-based, human; details: for Killing: cell killing by topotecan on 293T_ABCG2_OX cells, viability relative to IgG control
Description: Cytotoxicity Assays. The effect of antibodies on topotecan cytotoxicity was evaluated on 293T_ABCG2_OX cells, 293T cells stably transfected to express ABCG2. Cells were plated in 0.05 mL of Assay Media (DMEM+10% FBS) at 5000 cells/well in white, flat bottom 96-well tissue culture plates. Topotecan was prepared at 2× final assay concentration by serial dilution from 200 uM in assay media containing test antibodies or control antibodies at 100 ug/mL (2× final concentration), or Fumitremorgin C, a small molecule ABCG2 inhibitor at 20 uM (2× final concentration). An equivalent volume (0.05 mL) of the topotecan/antibody mixture was added to the 293T_ABCG2_OX cells in 96-well plates. The plates were then incubated at 37° C., in 5% CO2. After 72-96 hr plates were equilibrated to room temperature and cell viability assessed using Promega® CellTiter-Glo® Luminescent Cell Viability Assay according to the manufacturer's recommended protocol. Luminescence was measured on a Molecular Devices® FlexStation® 3 Multi-Mode Microplate Reader and data analyzed using GraphPad Prism 8.0 software. Half maximal inhibitory concentration (1050) is the concentration of drug (topotecan or other chemotherapy cytotoxic agent) where the response (cell growth) is reduced by 50%.

cynomolgus ABCG2 = assay: Flow cytometry binding to 293T cells overexpressing cynomolgus ABCG2; design: key to Cynomolgus ABCG2 binding: binding=“+”; non-significant binding=“−”; details: for binding to 293T cells overexpressing cynomolgus ABCG2: in words, FIGS. 7-11, 21
Sequence of cynomolgus ABCG2 (as listed by the source): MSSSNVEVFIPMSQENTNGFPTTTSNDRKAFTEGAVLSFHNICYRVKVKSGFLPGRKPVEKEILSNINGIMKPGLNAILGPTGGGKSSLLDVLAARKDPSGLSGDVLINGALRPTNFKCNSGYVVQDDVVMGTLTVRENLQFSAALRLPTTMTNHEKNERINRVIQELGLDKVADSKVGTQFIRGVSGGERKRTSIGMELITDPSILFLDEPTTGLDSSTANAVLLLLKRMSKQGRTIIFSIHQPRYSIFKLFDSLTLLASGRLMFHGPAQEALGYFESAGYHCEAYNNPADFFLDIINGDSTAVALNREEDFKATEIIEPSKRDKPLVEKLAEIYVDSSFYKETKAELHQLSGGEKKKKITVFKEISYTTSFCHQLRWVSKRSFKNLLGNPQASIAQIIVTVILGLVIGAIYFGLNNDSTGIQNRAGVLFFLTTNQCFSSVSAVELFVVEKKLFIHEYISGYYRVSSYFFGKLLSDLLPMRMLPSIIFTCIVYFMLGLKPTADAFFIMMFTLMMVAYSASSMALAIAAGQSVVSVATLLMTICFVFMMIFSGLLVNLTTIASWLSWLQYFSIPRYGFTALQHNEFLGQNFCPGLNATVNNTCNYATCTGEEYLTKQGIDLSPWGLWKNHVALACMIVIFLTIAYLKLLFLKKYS
Description: as §1

ABCG2 [2] = target: T1, ABCG2; type: cell-based
Description: 293T_ABCG2_OX cells were washed several times and aliquoted into 96-well plates as 50 μl aliquots/well at a cell density of 2×10e6 cells per ml in phenol red-free DMEM. Cells were mixed with 50 μl antibodies or the small molecule inhibitors of ABCG2:-fumitremorgin C (FTC), or its tetracyclic analogue K0143, with a final concentration of 1 μM. Cells were then incubated in the presence of 2.5 μM Mitoxantrone 1 h at 37° C. The cells were subsequently washed twice and finally resuspended in […] PBS. Mitoxantrone fluorescence was measured using excitation at 635 nm and emission at 647 nm. Protocols was measuring efflux blockade are found in Szabo E, et al., PLoS One. 2018 Jan. 17; 13(1):e0190629; Deeken J F, et al., Mol Pharmacol. 2009 November; 76(5):946-56).

Molecule	binding to 293T cells overexpressing human ABCG2 (ABCG2 [1])	binding to 293T cells overexpressing human ABCG2 (ABCG2 [1]; listed as G.643)	effect on topotecan cytotoxicity on 293T_ABCG2_OX cells (293T_ABCG2_OX cells)	binding to 293T cells overexpressing cynomolgus ABCG2 (cynomolgus ABCG2)	binding to 293T cells overexpressing cynomolgus ABCG2 (cynomolgus ABCG2; listed as G.643)	Binding by FACS (ABCG2 [1])	Block Efflux (ABCG2 [2])	Cynomolgus ABCG2 binding (cynomolgus ABCG2)	Kd (ABCG2 [1])	efflux inhibition activity (ABCG2 [2])	Killing (293T_ABCG2_OX cells)
G2.643: Anti-G2 antibody raised in rats (antibody, V domains shown) VH: VNLVESGPELVKPGTSVKISCKASGYRFTSYYVHWVKQRPGQGLEWIGWIFPGSDNTKYNEKFKGKATLTADTSSSTAYMQLSSLTSEDSAVYFCASIYYGYDGTLYFDYWGQGTSVTVSS VL: DIVMTQSHTFMSTSVGDRVSVTCKASQNVGNNVAWYQQKPGQSPNALIYSASYRYSGVPDRFTGSGSGTDFTLTISNVQSEDLAEYFCQQYDRYPLTFGGGTKLEIK	strong binding	did not show significant binding	significantly increased the cytotoxic activity of topotecan	strong binding	did not show significant binding						
G2.420 rat: anti-ABCG2 antibody raised in rat (antibody, V domains shown) VH: SVQLMESGPGLVQPSQTLSLTCTVSGFSLNSYNVNWVRQPPGKGLEWIAAISSGGSTYYNSVLKSRLSITRDTSKSQVFLKMNSLQTEDTAMYFCARSGYYSSYMNWGQGVMVTVSS VL: DVVMTQTPPTLSATIGQSVSISCRSSQSLLHSTGNTYLNWLLQRPGQPPQLLIYLVSRLEYGVPNRFSGSGSGTDFTLKISGVEAEDLGVYYCAQSTHALNTFGAGTKLELK			significantly increased the cytotoxic activity of topotecan			+	+	+			
G2.318 rat: anti-ABCG2 antibody raised in rat (antibody, V domains shown) VH: EVKLLESGPGLVKPSQSLSLTCSVTGYTITSGYDWSWIRKFPGNKMEWMGYISYSGWTNYNPSLRSRISISRDTSKNQFFLQLNSVTTEDTATYYCARVRGYNPFAYWGQGTLVTVSS VL: DIVMTQSPSLLSASVGDRVTLSCKAGQNINNYLAWYQQKLGEAPKLLIYNANSLQTGIPSRFSGSGSGTDFTLTISSLQPEDVATYFCQQYNSWTTFGSGTKLEIK						+	+	+	41 nM	strong efflux inhibition activity	+ (viability ≥30% and <50% of IgG control)
G2.320 rat: anti-ABCG2 antibody raised in rat (antibody, V domains shown) VH: EVQLEESGPGLVKPSQSLSLTCSVTGYTITSGYDWTWIRKFPGNKMEWMGYISYSGFTNYNPSLRSRISITRDTSKNQFFLQLNSVTTEDTATYYCTRTRGYNPFAYWGQGASVSSAS VL: DIVMTQSPSLLSASVGDRVTLSCKAGRNINNYLAWYQQKLGKAPKLLIYNTNSLQTGIPSRFSGSGSGTDFTLTISSLQPEDVATYFCQQYNSWTTFGSGTKLEIK						+	+	+	58 nM		+ (viability ≥30% and <50% of IgG control)
G2.630 rat: anti-ABCG2 antibody raised in rat (antibody, V domains shown) VH: EVQLVESGPGLVKPSQSLSLTCSVTGYTITSGYDWTWIRKFPGNKMEWMGYISYSGFTNYNPSLRSRISITRDTSKNQFFLQLNSVTTEDTATYYCTRTRGYNPFAYWGQGTLVTVSS VL: DVVMTQSPSLLSASVGDRVTLSCKAGRNINNYLAWYQQKLGKAPKLLIYNTNSLQTGIPSRFSGSGSGTDFTLTISSLQPEDVATYFCQQYNSWTTFGSGTKLEIK						+	+	+			+ (viability ≥30% and <50% of IgG control)
G2.173 mouse: anti-ABCG2 antibody raised in mouse, listed in Table 2 (antibody, V domains shown) VH: QVQLQQSGADLVRPGASVKLSCTASGFNIKDDYVHWVKQRPEQGLEWIGRIDPANGNTRYAPKFRGKATMTADTSSNTAYLQLSSLTSADTAVYYCSPPLWVGGFAYWGQGTLVTVSS VL: DVVMTQTPLSLPVSLGDQASISCRSSQSLVHSDVNTYLHWYLQRPGQSPKLLIYKVSNRFSGVPDRFSGSGSGTDFTLKISRVESEDLGIYFCSQTTHVPYTFGGGTKLEIK						+	−	−			− (≥75% of IgG control)
G2.173 Humanized 1: humanized version of anti-ABCG2 antibody G2.173 (antibody, V domains shown) VH: EVQLVQSGAEVKKPGASVKVSCKASGFNIKDDYVHWVRQAPGQGLEWIGRIDPANGNTRYAPKFRGRATMTADTSISTAYMELSRLRSDDTAVYYCSPPLWVGGFAYWGQGTLVTVSS VL: DVVMTQSPLSLPVTLGQPASISCRSSQSLVHSDVNTYLHWYQQRPGQSPRLLIYKVSNRFSGVPDRFSGSGSGTDFTLKISRVEAEDVGVYFCSQTTHVPYTFGGGTKLEIK						+	−	−			− (≥75% of IgG control)
G2.173 Humanized 2: humanized version of anti-ABCG2 antibody G2.173 (antibody, V domains shown) VH: EVQLVQSGAEVKKPGASVKVSCKASGFNIKDDYVHWVRQAPGQGLEWIGRIDPAQGNTRYAPKFRGRATMTADTSISTAYMELSRLRSDDTAVYYCSPPLWVGGFAYWGQGTLVTVSS VL: DVVMTQSPLSLPVTLGQPASISCRSSQSLVHSDVNTYLHWYQQRPGQSPRLLIYKVSNRFSGVPDRFSGSGSGTDFTLKISRVEAEDVGVYFCSQTTHVPYTFGGGTKLEIK						+	−	−			− (≥75% of IgG control)
G2.173 Humanized 3: humanized version of anti-ABCG2 antibody G2.173 (antibody, V domains shown) VH: EVQLVQSGAEVKKPGASVKVSCKASGFNIKDDYVHWVRQAPGQGLEWIGRIDPASGNTRYAPKFRGRATMTADTSISTAYMELSRLRSDDTAVYYCSPPLWVGGFAYWGQGTLVTVSS VL: DVVMTQSPLSLPVTLGQPASISCRSSQSLVHSDVNTYLHWYQQRPGQSPRLLIYKVSNRFSGVPDRFSGSGSGTDFTLKISRVEAEDVGVYFCSQTTHVPYTFGGGTKLEIK						+	−	−			− (≥75% of IgG control)
